Laboratory results taken from paper PMC10639101.

What follows are substances tested against SecYEG labeled at SecY residue 292 with AF488 (E. coli) (UniProt P0AGA2) (assay: FRET or BRET).

FRET efficiency | Substance
0.3 | SecA-PhoA chimera labeled at PhoA residue 45 with AF647
0.46 | SecA-PhoA chimera labeled at PhoA residue 22 with AF647
0.25 | SecA-PhoA chimera labeled at PhoA residue 2 with AF647
0.24 | SecA-PhoA chimera labeled at PhoA residue 37 with AF647
